Experimental data as given in patent publication US20190269788A1.

How the values were obtained:
[1] = biological target: soluble recombinant human IGF1R hetero-tetramere with C-terminal 10-His tag (R&D Systems catalogue number 305-GR-50) (human) (UniProt P08069); experiment: SPR Biacore X100, Ln(2)/koff
[2] = biological target: soluble recombinant human IGF1R hetero-tetramere with C-terminal 10-His tag (R&D Systems catalogue number 305-GR-50) (human) (UniProt P08069); experiment: SPR Biacore X100, His-captured h-IGF1R around 600 RU, mean of four experiments

half-life of the complex [1]: 2 to 3 h
Kd [2]: 0.06 nM
B1: hz208F2 VH3/VL3 (antibody, human IgG1, kappa, V domains shown)
VH: QVQLVQSGAEVKKPGASVKMSCKASGYTFTSYYIYWVKQAPGQGLEWLGWIWPGDGSTKYNEKFQGRVTLTADKSSNTAYMFLSSLRSEDTAVYFCASPMITPNYAMDYWGQGTLVTVSS
VL: DIQMTQSPSSLSASVGDRVTISCRASQDISKYLNWYQQKPGKAPKLLIYYTSRLHSGVPSRFSGRGSGTDYSLTISNLQPEDFATYFCQQGSTLPYTFGGGTKVEIKR
